The Immune Epitope Database (IEDB)
Values belong to the sequence of their own block, whether it stands above or below them.

Experiments:
HLA-A*01:01 = assay: IEDB peptide-MHC binding, purified MHC/direct/fluorescence; filed as Kd, often an IC50 or EC50 that approximates it; ≥ and ≤ were set here for values at or beyond the usual limits of such assays
HLA-A*02:01 [1] = assay: as above
HLA-A*11:01 = assay: as above
HLA-A*31:01 = assay: as above
HLA-A*69:01 = assay: as above
HLA-B*07:02 = assay: as above
HLA-B*08:02 = assay: as above
HLA-B*08:03 = assay: as above
HLA-B*15:01 = assay: as above
HLA-B*15:02 = assay: as above
HLA-B*15:17 = assay: as above
HLA-B*27:05 = assay: as above
HLA-B*39:01 [2] = assay: as above
HLA-B*46:01 = assay: as above
HLA-B*48:01 = assay: as above
HLA-B*57:01 = assay: as above
HLA-B*58:01 = assay: as above
HLA-A*26:01 [3] = assay: IEDB peptide-MHC binding, purified MHC/competitive/fluorescence; filed as Kd, often an IC50 or EC50 that approximates it; ≥ and ≤ were set here for values at or beyond the usual limits of such assays
HLA-A*26:02 = assay: as above
HLA-A*30:01 = assay: as above; conditions: source organism: Zaire ebolavirus
HLA-A*68:02 [4] = assay: as above; conditions: source organism: Zaire ebolavirus
HLA-B*35:01 [5] = assay: as above; conditions: source organism: Zaire ebolavirus
HLA-C*06:02 = assay: IEDB peptide-MHC binding, purified MHC/direct/fluorescence; filed as Kd, often an IC50 or EC50 that approximates it; ≥ and ≤ were set here for values at or beyond the usual limits of such assays
HLA-A*02:01 [6] = assay: IEDB peptide-MHC binding, purified MHC/competitive/radioactivity; ≥ and ≤ were set here for values at or beyond the usual limits of such assays; conditions: source organism: Rhinovirus C
HLA-C*08:02 = assay: IEDB peptide-MHC binding, purified MHC/direct/fluorescence; filed as Kd, often an IC50 or EC50 that approximates it; ≥ and ≤ were set here for values at or beyond the usual limits of such assays
HLA-C*12:03 = assay: as above
HLA-A*02:01 [7] = assay: IEDB peptide-MHC binding, purified MHC/competitive/fluorescence; filed as Kd, often an IC50 or EC50 that approximates it; ≥ and ≤ were set here for values at or beyond the usual limits of such assays
HLA-A*68:02 [8] = assay: IEDB peptide-MHC binding, purified MHC/direct/fluorescence; filed as Kd, often an IC50 or EC50 that approximates it; ≥ and ≤ were set here for values at or beyond the usual limits of such assays; conditions: source organism: Influenza A virus (A/Quail/Shanghai/8/96(H9N2))
HLA-B*08:01 = assay: as above
HLA-B*35:01 [9] = assay: as above
HLA-C*03:03 = assay: as above; conditions: source organism: Salmonella enterica subsp. enterica serovar Typhi str. CT18
HLA-C*05:01 = assay: as above; conditions: source organism: Salmonella enterica subsp. enterica serovar Typhi str. CT18
HLA-A*32:07 = assay: IEDB peptide-MHC binding, purified MHC/competitive/fluorescence; filed as Kd, often an IC50 or EC50 that approximates it; ≥ and ≤ were set here for values at or beyond the usual limits of such assays; conditions: source organism: Salmonella enterica subsp. enterica serovar Typhi
HLA-A*32:15 = assay: as above; conditions: source organism: Salmonella enterica subsp. enterica serovar Typhi
HLA-A*68:23 = assay: as above; conditions: source organism: Salmonella enterica subsp. enterica serovar Typhi
HLA-B*15:42 = assay: as above; conditions: source organism: Salmonella enterica subsp. enterica serovar Typhi
HLA-B*39:01 [10] = assay: as above
HLA-B*45:06 = assay: as above; conditions: source organism: Salmonella enterica subsp. enterica serovar Typhi
HLA-B*83:01 = assay: as above; conditions: source organism: Salmonella enterica subsp. enterica serovar Typhi
HLA-C*14:02 = assay: as above; conditions: source organism: Salmonella enterica subsp. enterica serovar Typhi
HLA-A*03:01 = assay: IEDB peptide-MHC binding, purified MHC/direct/fluorescence; filed as Kd, often an IC50 or EC50 that approximates it; ≥ and ≤ were set here for values at or beyond the usual limits of such assays; conditions: source organism: Rickettsia prowazekii
HLA-A*26:01 [11] = assay: as above; conditions: source organism: Rickettsia prowazekii
HLA-B*40:01 = assay: as above; conditions: source organism: Rickettsia prowazekii
HLA-B*44:02 = assay: as above; conditions: source organism: Rickettsia prowazekii
[12] = source organism: Ebola virus - Mayinga, Zaire, 1976
[13] = source organism: Ravn virus - Ravn, Kenya, 1987
[14] = source organism: Zaire ebolavirus
[15] = source organism: Pseudomonas putida
[16] = source organism: Pseudomonas aeruginosa PACS2
[17] = source organism: Escherichia coli 536
[18] = source organism: Influenza A virus (A/Quail/Shanghai/8/96(H9N2))
[19] = source organism: Salmonella enterica subsp. enterica serovar Typhi
[20] = source organism: Rickettsia prowazekii
[21] = source organism: Salmonella enterica

Sequence: FIYFGKKQY
- Kd (HLA-A*01:01; [12]): 0.451 µM
- Kd (HLA-A*02:01 [1]; [12]): ≥ 20 µM
- Kd (HLA-A*11:01; [12]): ≥ 20 µM
- Kd (HLA-A*31:01; [12]): ≥ 20 µM
- Kd (HLA-A*69:01; [12]): ≥ 20 µM
- Kd (HLA-B*07:02; [12]): ≥ 20 µM
- Kd (HLA-B*08:02; [13]): ≥ 20 µM
- Kd (HLA-B*08:03; [13]): ≥ 20 µM
- Kd (HLA-B*15:01; [12]): 0.067 µM
- Kd (HLA-B*15:02; [13]): 0.008 µM
- Kd (HLA-B*15:17; [12]): 0.135 µM
- Kd (HLA-B*27:05; [12]): ≥ 20 µM
- Kd (HLA-B*39:01 [2]; [13]): ≥ 20 µM
- Kd (HLA-B*46:01; [12]): ≥ 20 µM
- Kd (HLA-B*48:01; [12]): ≥ 20 µM
- Kd (HLA-B*57:01; [12]): 7.13 µM
- Kd (HLA-B*58:01; [12]): ≥ 20 µM
- Kd (HLA-A*26:01 [3]; [14]): 2.3 µM
- Kd (HLA-A*26:02; [14]): ≥ 20 µM
- Kd (HLA-A*30:01): ≥ 20 µM
- Kd (HLA-A*68:02 [4]): 4.98 µM
- Kd (HLA-B*35:01 [5]): 1.49 µM

Sequence: FQYLLPGFVL
- Kd (HLA-C*06:02; source organism: Variola virus): 8.62 µM

Sequence: GLEPLDLNT
- IC50 (HLA-A*02:01 [6]): 0.5 µM

Sequence: IVHPPMLYM
- Kd (HLA-B*15:17; [15]): 0.0611 µM
- Kd (HLA-B*57:01; source organism: Vibrio vulnificus CMCP6): 2.17 µM
- Kd (HLA-B*58:01; [15]): 5.98 µM
- Kd (HLA-C*08:02; [16]): ≥ 20 µM
- Kd (HLA-C*12:03; [16]): 0.062 µM

- Kd (HLA-C*08:02; [17]): ≥ 20 µM
- Kd (HLA-A*02:01 [7]; [17]): 0.0011 µM
Sequence: LLDEYRDYI

Sequence: LVGGREWSY
- Kd (HLA-A*01:01; [18]): ≥ 20 µM
- Kd (HLA-A*02:01 [1]; [18]): ≥ 20 µM
- Kd (HLA-A*11:01; [18]): ≥ 20 µM
- Kd (HLA-A*31:01; [18]): ≥ 20 µM
- Kd (HLA-A*68:02 [8]): ≥ 20 µM
- Kd (HLA-A*69:01; [18]): ≥ 20 µM
- Kd (HLA-B*07:02; [18]): ≥ 20 µM
- Kd (HLA-B*08:01; [18]): ≥ 20 µM
- Kd (HLA-B*08:02; [18]): ≥ 20 µM
- Kd (HLA-B*08:03; [18]): ≥ 20 µM
- Kd (HLA-B*15:01; [18]): 1.19 µM
- Kd (HLA-B*15:02; [18]): ≥ 20 µM
- Kd (HLA-B*15:17; [18]): 1.89 µM
- Kd (HLA-B*27:05; [18]): ≥ 20 µM
- Kd (HLA-B*35:01 [9]; [18]): 0.843 µM
- Kd (HLA-B*39:01 [2]; [18]): ≥ 20 µM
- Kd (HLA-B*46:01; [18]): ≥ 20 µM
- Kd (HLA-B*48:01; [18]): ≥ 20 µM
- Kd (HLA-B*57:01; [18]): 1.3 µM
- Kd (HLA-B*58:01; [18]): ≥ 20 µM
- Kd (HLA-A*26:01 [3]; [18]): ≥ 20 µM
- Kd (HLA-A*26:02; [18]): ≥ 20 µM

Sequence: WTFTPTTPL
- Kd (HLA-C*03:03): ≤ 0.001 µM
- Kd (HLA-C*05:01): ≥ 20 µM
- Kd (HLA-C*12:03; source organism: Salmonella enterica subsp. enterica serovar Typhi str. CT18): 0.212 µM
- Kd (HLA-A*02:01 [7]; [19]): 0.0058 µM
- Kd (HLA-A*26:01 [3]; [19]): 0.581 µM
- Kd (HLA-A*32:07): 0.765 µM
- Kd (HLA-A*32:15): 0.0575 µM
- Kd (HLA-A*68:23): 0.0004 µM
- Kd (HLA-B*15:42): ≥ 5 µM
- Kd (HLA-B*39:01 [10]; [19]): 0.469 µM
- Kd (HLA-B*45:06): ≥ 5 µM
- Kd (HLA-B*83:01): ≥ 5 µM
- Kd (HLA-C*14:02): 0.0385 µM

Sequence: YGGKKAVTY
- Kd (HLA-A*01:01; [20]): ≥ 20 µM
- Kd (HLA-A*02:01 [1]; [20]): ≥ 20 µM
- Kd (HLA-A*03:01): ≥ 20 µM
- Kd (HLA-A*11:01; [20]): ≥ 20 µM
- Kd (HLA-A*26:01 [11]): ≥ 20 µM
- Kd (HLA-A*31:01; [20]): ≥ 20 µM
- Kd (HLA-A*69:01; [20]): ≥ 20 µM
- Kd (HLA-B*07:02; [20]): ≥ 20 µM
- Kd (HLA-B*08:01; [20]): ≥ 20 µM
- Kd (HLA-B*15:01; [20]): 1.4 µM
- Kd (HLA-B*15:02; [20]): ≥ 20 µM
- Kd (HLA-B*27:05; [20]): ≥ 20 µM
- Kd (HLA-B*35:01 [9]; [20]): 0.249 µM
- Kd (HLA-B*40:01): ≥ 20 µM
- Kd (HLA-B*44:02): ≥ 20 µM
- Kd (HLA-B*46:01; [20]): ≥ 20 µM
- Kd (HLA-B*58:01; [20]): ≥ 20 µM

Sequence: YRYISFLVL
- Kd (HLA-C*06:02; [21]): 0.651 µM
- Kd (HLA-B*39:01 [10]; [21]): 0.536 µM
